Measured values reported in publication PMC9482650, “Quantitative fragmentomics allow affinity mapping of interactomes” (Nature Communications, 2022).

Legend:
Experiment in all cases: holdup assay
Set-up in all cases: key: below the threshold = too weak to quantify, mostly under pKd 3.1 to 4
SCRIB_2, Q14160 = biological target: SCRIB_2, Q14160
NHERF3_1, Q5T2W1 = biological target: T1, NHERF3_1, Q5T2W1
T1 sequence (Q5T2W1 4-100, limits assumed, looked up): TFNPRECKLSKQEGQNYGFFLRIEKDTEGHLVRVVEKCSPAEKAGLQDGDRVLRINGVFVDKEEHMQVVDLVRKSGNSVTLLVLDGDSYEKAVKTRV

TJP1_2, Q07157 = biological target: TJP1_2, Q07157
LRRC7, Q96NW7 = biological target: T2, LRRC7, Q96NW7
T2 sequence (Q96NW7 1440-1537, limits assumed, looked up): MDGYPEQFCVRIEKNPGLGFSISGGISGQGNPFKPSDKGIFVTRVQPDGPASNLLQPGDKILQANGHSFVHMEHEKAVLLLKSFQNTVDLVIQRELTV

GRIP2_3, Q9C0E4 = biological target: GRIP2_3, Q9C0E4
PDZRN3_1, Q9UPQ7 = biological target: T3, PDZRN3_1, Q9UPQ7
T3 sequence (Q9UPQ7 244-349, limits assumed, looked up): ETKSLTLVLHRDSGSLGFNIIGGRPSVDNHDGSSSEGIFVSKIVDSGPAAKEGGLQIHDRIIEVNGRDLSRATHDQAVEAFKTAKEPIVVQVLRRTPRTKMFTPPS

MPP6, Q9NZW5 = biological target: T4, MPP6, Q9NZW5
T4 sequence (Q9NZW5 125-219, limits assumed, looked up): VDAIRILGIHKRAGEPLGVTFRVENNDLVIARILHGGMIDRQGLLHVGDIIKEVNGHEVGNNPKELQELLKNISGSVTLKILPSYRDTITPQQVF

DLG2_2, Q15700 = biological target: DLG2_2, Q15700
TX1BP3, O14907 = biological target: T5, TX1BP3, O14907
T5 sequence (O14907 10-122, limits assumed, looked up): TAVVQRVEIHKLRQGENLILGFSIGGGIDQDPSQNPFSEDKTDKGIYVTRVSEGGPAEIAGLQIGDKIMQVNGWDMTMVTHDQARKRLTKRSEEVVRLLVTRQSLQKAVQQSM

ARHGEF12, Q9NZN5-2 = biological target: ARHGEF12, Q9NZN5-2
PDLIM1, O00151 = biological target: PDLIM1, O00151
LNX1_3, Q8TBB1 = biological target: LNX1_3, Q8TBB1
GRIP2_6, Q9C0E4 = biological target: GRIP2_6, Q9C0E4
LIN7B, Q9HAP6 = biological target: T6, LIN7B, Q9HAP6
T6 sequence (Q9HAP6 88-185, limits assumed, looked up): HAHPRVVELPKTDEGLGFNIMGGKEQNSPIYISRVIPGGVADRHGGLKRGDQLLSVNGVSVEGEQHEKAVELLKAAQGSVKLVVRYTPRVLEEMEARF

GRIP2_5, Q9C0E4 = biological target: GRIP2_5, Q9C0E4
NHERF3_4, Q5T2W1 = biological target: T7, NHERF3_4, Q5T2W1
T7 sequence (Q5T2W1 373-468, limits assumed, looked up): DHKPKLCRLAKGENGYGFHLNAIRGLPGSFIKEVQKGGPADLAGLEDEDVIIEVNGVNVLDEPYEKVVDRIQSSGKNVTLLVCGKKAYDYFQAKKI

HTRA4, P83105 = biological target: T8, HTRA4, P83105
T8 sequence (P83105 378-476, limits assumed, looked up): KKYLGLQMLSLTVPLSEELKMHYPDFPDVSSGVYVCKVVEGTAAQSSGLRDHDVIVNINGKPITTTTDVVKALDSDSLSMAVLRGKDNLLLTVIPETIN

LDB3, O75112 = biological target: LDB3, O75112
FRMPD2_1, Q68DX3 = biological target: FRMPD2_1, Q68DX3
DLG2_3, Q15700 = biological target: DLG2_3, Q15700
DLG3_1, Q92796 = biological target: T9, DLG3_1, Q92796
T9 sequence (Q92796 125-227, limits assumed, looked up): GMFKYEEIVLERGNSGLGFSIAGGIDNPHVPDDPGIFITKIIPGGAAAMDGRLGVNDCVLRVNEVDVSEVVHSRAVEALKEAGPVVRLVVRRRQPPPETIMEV

GORASP2, Q9H8Y8 = biological target: GORASP2, Q9H8Y8
SNTB1, Q13884 = biological target: T10, SNTB1, Q13884
T10 sequence (Q13884 107-205, limits assumed, looked up): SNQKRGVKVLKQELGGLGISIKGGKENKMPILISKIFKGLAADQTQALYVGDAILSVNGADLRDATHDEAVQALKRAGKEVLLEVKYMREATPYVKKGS

MAST2, Q6P0Q8 = biological target: MAST2, Q6P0Q8
MPP2, Q14168 = biological target: T11, MPP2, Q14168
T11 sequence (Q14168 180-250, limits assumed, looked up): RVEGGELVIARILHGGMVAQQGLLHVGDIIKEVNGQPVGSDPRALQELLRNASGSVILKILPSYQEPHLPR

Inadl_1, Q8NI35 = biological target: Inadl_1, Q8NI35
[1] = plain residues with an end cap or a label only (N-terminal biotin on a linker: ttds)
[2] = plain residues with an end cap or a label only (N-terminal biotin on a linker: ado-ado)

Inadl_1, Q8NI35, sequence (Q8NI35 113-229): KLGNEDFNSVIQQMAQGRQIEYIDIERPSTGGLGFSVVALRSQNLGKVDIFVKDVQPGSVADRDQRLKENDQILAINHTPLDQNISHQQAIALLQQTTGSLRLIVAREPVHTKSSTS
SCRIB_2, Q14160, sequence (Q14160 857-960): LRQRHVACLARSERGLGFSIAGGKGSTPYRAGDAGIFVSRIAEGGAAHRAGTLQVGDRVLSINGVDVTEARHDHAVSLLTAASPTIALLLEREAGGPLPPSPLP
TJP1_2, Q07157, sequence (Q07157 181-274): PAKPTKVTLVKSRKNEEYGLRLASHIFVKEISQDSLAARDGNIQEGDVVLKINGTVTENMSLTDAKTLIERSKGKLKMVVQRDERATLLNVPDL
ARHGEF12, Q9NZN5-2, sequence (Q9NZN5 other isoform, or with tags, fused parts or gaps): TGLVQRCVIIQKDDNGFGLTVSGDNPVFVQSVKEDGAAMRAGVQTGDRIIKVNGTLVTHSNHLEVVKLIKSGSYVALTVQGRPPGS
GRIP2_6, Q9C0E4, sequence (Q9C0E4 648-740): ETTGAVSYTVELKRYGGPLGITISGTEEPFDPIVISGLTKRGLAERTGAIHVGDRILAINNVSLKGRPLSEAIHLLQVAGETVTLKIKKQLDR
LDB3, O75112, sequence (O75112 1-94): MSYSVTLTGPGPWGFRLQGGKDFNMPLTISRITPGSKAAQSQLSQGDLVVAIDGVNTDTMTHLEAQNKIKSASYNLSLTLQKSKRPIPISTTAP
MAST2, Q6P0Q8, sequence (Q6P0Q8 1099-1202): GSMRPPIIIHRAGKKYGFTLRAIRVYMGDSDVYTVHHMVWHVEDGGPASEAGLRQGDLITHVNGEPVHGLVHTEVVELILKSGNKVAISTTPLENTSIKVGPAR
FRMPD2_1, Q68DX3, sequence (Q68DX3 770-861): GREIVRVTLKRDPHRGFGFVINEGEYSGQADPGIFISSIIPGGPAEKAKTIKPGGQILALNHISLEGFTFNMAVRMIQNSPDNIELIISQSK
LNX1_3, Q8TBB1, sequence (Q8TBB1 500-596): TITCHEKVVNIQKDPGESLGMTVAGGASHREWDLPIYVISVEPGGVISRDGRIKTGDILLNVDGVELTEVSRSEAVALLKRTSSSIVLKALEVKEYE
GRIP2_5, Q9C0E4, sequence (Q9C0E4 544-642): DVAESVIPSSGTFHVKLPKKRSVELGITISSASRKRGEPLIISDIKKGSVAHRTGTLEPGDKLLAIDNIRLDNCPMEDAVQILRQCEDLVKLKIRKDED
GRIP2_3, Q9C0E4, sequence (Q9C0E4 238-339): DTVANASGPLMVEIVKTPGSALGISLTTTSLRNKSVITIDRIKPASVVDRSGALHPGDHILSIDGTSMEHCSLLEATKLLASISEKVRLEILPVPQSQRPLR
PDLIM1, O00151, sequence (O00151 1-87): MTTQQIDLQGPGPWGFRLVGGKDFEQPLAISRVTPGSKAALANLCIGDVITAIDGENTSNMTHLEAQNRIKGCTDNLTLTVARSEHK

Binder: HIVEALETDV [PBK, Q96KB5]
- pKd (SCRIB_2, Q14160; [1]): 5.32
- pKd (NHERF3_1, Q5T2W1; [1]): below the threshold
- pKd (TJP1_2, Q07157; [1]): below the threshold
- pKd (LRRC7, Q96NW7; [1]): 3.91
- pKd (GRIP2_3, Q9C0E4; [1]): below the threshold
- pKd (PDZRN3_1, Q9UPQ7; [1]): below the threshold
- pKd (MPP6, Q9NZW5; [1]): below the threshold
- pKd (DLG2_2, Q15700; [1]): 5.28
- pKd (TX1BP3, O14907; [1]): 5.03
- pKd (ARHGEF12, Q9NZN5-2; [1]): 4.23
- pKd (PDLIM1, O00151; [1]): 3.91
- pKd (LNX1_3, Q8TBB1; [1]): below the threshold
- pKd (GRIP2_6, Q9C0E4; [1]): below the threshold
- pKd (LIN7B, Q9HAP6; [1]): below the threshold
- pKd (GRIP2_5, Q9C0E4; [1]): below the threshold
- pKd (NHERF3_4, Q5T2W1; [1]): below the threshold
- pKd (HTRA4, P83105; [1]): below the threshold
- pKd (LDB3, O75112; [1]): below the threshold
- pKd (FRMPD2_1, Q68DX3; [1]): below the threshold
- pKd (DLG2_3, Q15700; [1]): 3.7
- pKd (DLG3_1, Q92796; [1]): 4.67
- pKd (GORASP2, Q9H8Y8; [1]): below the threshold
- pKd (SNTB1, Q13884; [1]): 5.29
- pKd (MAST2, Q6P0Q8; [1]): 5.71
- pKd (MPP2, Q14168; [1]): below the threshold
- pKd (Inadl_1, Q8NI35; [1]): below the threshold

Binder: GFGEERESIL [KIDINS220, Q9ULH0]
- pKd (SCRIB_2, Q14160; [2]): below the threshold
- pKd (NHERF3_1, Q5T2W1; [2]): 5.06
- pKd (TJP1_2, Q07157; [2]): below the threshold
- pKd (LRRC7, Q96NW7; [2]): below the threshold
- pKd (GRIP2_3, Q9C0E4; [2]): below the threshold
- pKd (PDZRN3_1, Q9UPQ7; [2]): 4.72
- pKd (MPP6, Q9NZW5; [2]): below the threshold
- pKd (DLG2_2, Q15700; [2]): below the threshold
- pKd (TX1BP3, O14907; [2]): 3.73
- pKd (ARHGEF12, Q9NZN5-2; [2]): 4.13
- pKd (PDLIM1, O00151; [2]): below the threshold
- pKd (LNX1_3, Q8TBB1; [2]): below the threshold
- pKd (GRIP2_6, Q9C0E4; [2]): below the threshold
- pKd (LIN7B, Q9HAP6; [2]): below the threshold
- pKd (GRIP2_5, Q9C0E4; [2]): below the threshold
- pKd (NHERF3_4, Q5T2W1; [2]): below the threshold
- pKd (HTRA4, P83105; [2]): below the threshold
- pKd (LDB3, O75112; [2]): below the threshold
- pKd (FRMPD2_1, Q68DX3; [2]): below the threshold
- pKd (DLG2_3, Q15700; [2]): below the threshold
- pKd (DLG3_1, Q92796; [2]): below the threshold
- pKd (GORASP2, Q9H8Y8; [2]): below the threshold
- pKd (SNTB1, Q13884; [2]): 5.4
- pKd (MAST2, Q6P0Q8; [2]): 5.32
- pKd (MPP2, Q14168; [2]): below the threshold
- pKd (Inadl_1, Q8NI35; [2]): below the threshold

Binder: PKRPFVESNV [TANC2, Q9HCD6]
- pKd (SCRIB_2, Q14160; [1]): 4.59
- pKd (NHERF3_1, Q5T2W1; [1]): 3.59
- pKd (TJP1_2, Q07157; [1]): below the threshold
- pKd (LRRC7, Q96NW7; [1]): 4.05
- pKd (GRIP2_3, Q9C0E4; [1]): below the threshold
- pKd (PDZRN3_1, Q9UPQ7; [1]): below the threshold
- pKd (MPP6, Q9NZW5; [1]): below the threshold
- pKd (DLG2_2, Q15700; [1]): 4.33
- pKd (TX1BP3, O14907; [1]): 5.9
- pKd (ARHGEF12, Q9NZN5-2; [1]): below the threshold
- pKd (PDLIM1, O00151; [1]): below the threshold
- pKd (LNX1_3, Q8TBB1; [1]): below the threshold
- pKd (GRIP2_6, Q9C0E4; [1]): below the threshold
- pKd (LIN7B, Q9HAP6; [1]): below the threshold
- pKd (GRIP2_5, Q9C0E4; [1]): below the threshold
- pKd (NHERF3_4, Q5T2W1; [1]): below the threshold
- pKd (HTRA4, P83105; [1]): below the threshold
- pKd (LDB3, O75112; [1]): below the threshold
- pKd (FRMPD2_1, Q68DX3; [1]): below the threshold
- pKd (DLG2_3, Q15700; [1]): 3.86
- pKd (DLG3_1, Q92796; [1]): 3.82
- pKd (GORASP2, Q9H8Y8; [1]): below the threshold
- pKd (SNTB1, Q13884; [1]): 4.49
- pKd (MAST2, Q6P0Q8; [1]): 4.84
- pKd (MPP2, Q14168; [1]): below the threshold
- pKd (Inadl_1, Q8NI35; [1]): below the threshold
